Measurements published in a protein production outcome set (Wang et al. 2014).

Assay: label from the status in PepcDB records

**Q.** With “MAERINPVVKAVLEWGPIAAFFLGYVKLKDETFTVAGTDYQGFIIVTAAFIPLMVICTGLLWWLSGKLSKMQVATVVLVVVFGGLSVWLNDDRFFKMKPTMIYLLFGVLLGIGLLRGQSWLRLVLEEAIPLQDEGWMILTRRVMAFFFALAIANEAVWRLMSTDAWVNFKTFGLPLAIFVFFMTQSGLFKRYNPERKDEA” as the sequence, how does the protein production read?
**A.** not failed

**Q.** With “MAERLGILVGGGPAPGINSVISSVTIEAINNGLEVIGIYDGFKHLVEGKTNMVKKLSIEDVSRIHIEGGSILRTSRVNPAKSEETLEKTVQTLKKLGIKYLVTIGGDDTAFSASKVCERSKGEIKVVHVPKTIDNDLPLPENMPTFGFETARHVATELVYNLMQDSRTTNRWYFVAMMGREAGHLALGVGKAASATITIIPEEFKEGVTLEEVCDVLDGAILKRKLMGRDDGVAVIGEGIAEKMDPEELANIPGVIVEKDPHGHLRLAEIPLATILKRAIERRYAERGERIHIVDVTIGYELRSARPIPFDIVYTRTLGYGAVRFLLGDYSDLPGGMVCVVGGRIKILPFDAFMDPKTGRTKVRVVDVRSEDYRVARKYMIRLEKKDLEDPETLEKLAKLAKMEPEEFKKKYWHTTELP” as the sequence, how does the protein production read?
**A.** failed

**Q.** For “MAETAETINTTISSPPPESESSTTISAMTDPTSQEAASKDTDLTKEAESEKKPGGISLRIWPPTQKTRDAVLNRLIETLSTESILSKRYGTLKSDDATTVAKLIEEEAYGVASNAVSSDDDGIKILELYSKEISKRMLESVKARSNASVGNGSVEDANTDASEVSKDDAGPASEEEKSEA”, which protein production is on record?
**A.** failed

**Q.** For “MAEYEDRYWTSSDGLRLHFRAYEGDISRPPVLCLPGLTRNARDFEDLATRLAGDWRVLCPEMRGRGDSDYAKDPMTYQPMQYLQDLEALLAQEGIERFVAIGTSLGGLLTMLLAAANPARIAAAVLNDVGPEVSPEGLERIRGYVGQGRNFETWMHAARALQESSGDVYPDWDITQWLRYAKRIMVLGSSGRIAFDYDMKIAEPFEAPVGATPQVDMWPLFDALATRPLLVLRGETSDILSAQTAAKMASRPGVELVTLPRIGHAPTLDEPESIAAIGRLLERV”, which protein production is on record?
**A.** not failed

**Q.** For “MAFCSLEKRHAILDWPQLQLTNGSGRCSGRVEVYYHGQWGRVCDDQWDLREADVVCRQLNCGDALEAPVQARFGDGPGEFLLDEMDCTGTESFLGQCPHAGWHLHNCGSGEDASVICEGNGEELVARPQVLPVADPVPGSRRAHVPRLSLNGADMSPDPTPVIDPDPESSKPSGDWAPVRLSGNHGSCAGRVELFYQGVWGTVCDDLWDLTEANIICRQLGCGRAVSALSEAYFGQGSGKILLDNVHCKGHEEHLEECSHLGWFSHNCDHSEDASVICSDAEYGMATLSDHPLAVMEGAMNPEKSRCGGVITKAPGKIKNPPMNEMHDNITCVWEIRANTSDRIRLAFPSLDLDCTNEYFEILDGPPSSVKSLGKPCRGLHVTFASHSNSMTLVYFRGENNIGKNFMAYYYFEAKEVTTKTPYLITIPTATSKMVTERPQFSKPAQPTHTPSGNVSPLPVPDSGDWPELRLVGGSNRCSGRVEILYQGVWGTVCDDLWDLNEAEVVCRQLECGQAVSSLGEAYFGPGSGDIFLDNLQCSGLEHYLSQCPHSGWSEHNCGHHEDAGVICSDSGAPPPPMPPGPPPTSQDPLTGGSNSCGGVISSLSGSFTSPQYPENYPTDIQCVWEIHVEKNFRIELMIPNLNLEDILGCPYDSVEIFDGPRIPSLSMGKFCAPSAVVFFSSSDILTVVFRSDYMTTNTGFYAFFNAIPQDGKESEERPVLRLAGSSGQCSGRVEILHQGAWGTVCDDLWDLNEAEVVCRQLGCGHAIAAPGSAYFGPGSGNILLDNIQCSGKENHFGQCSSSAWLDHNCGHHEDAGVICSDAEVTPSPTEGSQSCGGVISSLSGSFSSPWYPTNYPTDTECIWEIHVAEKFNIELTIPSLK”, which protein production is on record?
**A.** failed

**Q.** With “MAFDGCCPDCKLPGDDCPLIWGACNHAFHLHCILKWVNSQTSQAHCPMCRREWQFKE” as the sequence, how does the protein production read?
**A.** failed

**Q.** For “MAFGSFARSGGSSRFLFTAGRMAQQLTVSIGQASSPGRKPVNQDFYGALIPAEPLLITKGIALALADGISSSDISQVASESAVKSFLTDYYCTSEAWSVKSSAQRVIAATNSWLHAETRRSDYRYDRDKGYVCTLSALVIKGAAAHLFHIGDSRIYRLAGASLEQLTEDHRVRLSAEQSYLGRALGVNPQVEIDYLSVPIGSGDLFVLATDGVYEHVAHRFVVQTLRDHGDDLDAAARAIVGEAFNNGSDDNLTVQVVRIESVPGADSIDLFERVAELPLPPLLEPRAEFDGYRIIRELHGSSRSHIYLASDLATGELVVLKIPSADLRDDPEYRKRFMLEEWAARRIDSPHVLKPCVVQRPRSYLYVTFEYIEGQTLAQWMIDHPRAELETVRGLIEQIAKGLYAFHRKEMVHQDLRPANVLIDRSGTVKIIDFGSVRVAGVAELGPAGGDELLGTVQYMAPEYFAGQGGSALSDQFSLGVIAYQMLTGRLPYGAELARANQALKSRKLRYSAAADHNAKVPVWVDRALQRAVSLDPAKRYPALSEFVHDLRHPRADYLDARPQPLAARNPLLFLQLLSALLALIVVGLLARLHGSI”, which protein production is on record?
**A.** failed

**Q.** For “MAFTKIIFKNPNTGAIKEAPVGFSWTVFFFGFIPALFRADWKWAAIMFLLAMFTFGLSNLVFMFIYNKLYVRDLIGAGFKAQSIASGDLNFASSRIGMEIPRLEAA”, which protein production is on record?
**A.** failed

**Q.** For “MAGAAHRLMEARMRRYDNKFARISDIDINQPESWRGRIFLTFDIDWAADFVLQDTIDLIEGAGVCATWFATHSTPLLENIRRNPLFELGVHPNFNPLLAGAHAEGVQEILDRTLELAPGCVSVRSHSLVQATSILNMFGERRLRYDCNILVPWDAGIVLQPWRHWTGDMVRVPYLWEDDVACLYDWEFDSTFDYWYQPDGINVLDFHPIHVYMNTESLRRYEDSREVHRNPVDLIRWRNTSAGSRTFLQSLLARNI”, which protein production is on record?
**A.** not failed

**Q.** With “MAGAPGPLRLALLLLGMVGRAGPRPQGATVSLWETVQKWREYRRQCQRSLTEDPPPATDLFCNRTFDEYACWPDGEPGSFVNVSCPWYLPWASSVPQGHVYRFCTAEGLWLQKDNSSLPWRDLSECEESKRGERSSPEEQLLFLYIIYTVGYALSFSALVIASAILLGFRHLHCTRNYIHLNLFASFILRALSVFIKDAALKWMYSTAAQQHQWDGLLSYQDSLSCRLVFLLMQYCVAANYYWLLVEGVYLYTLLAFSVLSEQWIFRLYVSIGWGVPLLFVVPWGIVKYLYEDEGCWTRNSNMNYWLIIRLPILFAIGVNFLIFVRVICIVVSKLKANLMCKTDIKCRLAKSTLTLIPLLGTHEVIFAFVMDEHARGTLRFIKLFTELSFTSFQGLMVAILYCFVNNEVQLEFRKSWERWRLEHLHIQRDSSMKPLKCPTSSLSSGATAGSSMYTATCQASCS” as the sequence, how does the protein production read?
**A.** failed

**Q.** With “MAGAQPGVHALQLEPPTVVETLRRGSKFIKWDEETSSRNLVTLRVDPNGFFLYWTGPNMEVDTLDISSIRDTRTGRYARLPKDPKIREVLGFGGPDARLEEKLMTVVSGPDPVNTVFLNFMAVQDDTAKVWSEELFKLAMNILAQNASRNTFLRKAYTKLKLQVNQDGRIPVKNILKMFSADKKRVETALESCGLKFNRSESIRPDEFSLEIFERFLNKLCLRPDIDKILLEIGAKGKPYLTLEQLMDFINQKQRDPRLNEVLYPPLRPSQARLLIEKYEPNQQFLERDQMSMEGFSRYLGGEENGILPLEALDLSTDMTQPLSAYFINSSHNTYLTAGQLAGTSSVEMYRQALLWGCRCVELDVWKGRPPEEEPFITHGFTMTTEVPLRDVLEAIAETAFKTSPYPVILSFENHVDSAKQQAKMAEYCRSIFGDALLIEPLDKYPLAPGVPLPSPQDLMGRILVKNKKRHRPSAGGPDSAGRKRPL” as the sequence, how does the protein production read?
**A.** failed

**Q.** Which protein production does the source give for “MAGASLFTLLDDIATLLDDVSILTKVAAKKTAGVLGDDLALNAQQVTGVTADRELPVVWAVAKGSLVNKVILVPAALAISALEAWLRGRGYNVPLVMPLMMIGGAYLCFEGVEKLAHKFLHSEEEDAQRHAERTRVLADEAVDVVALEKDKVKGAIRTDFILSAEIIVLSLGVVAGVSFGQQVAVLVAIALAMTIGVYGLVAGIVKLDDLGLYLSKKGAALAALGRGILVAAPWLMKFLSVAGTLAMFLVGGGILVHNIPTLHHLVVDLAKASGSLGWLVEALGNMLVGVVAGAVVLAAVTGFQKLRGNRPRTDSVQSLRRQAKSRTG” here?
**A.** failed

**Q.** With “MAGAYLHIPFCEHICYYCDFNKVFIEGQPVDDYVAMLLKEMRMVMAEHPEEKIQTVYVGGGTPSTLTPTQLATLCQGIHDILHFDQGEFTFEANPNDLLTTEKLQVLHDYGVNRLSIGVQSFNDDVLRRIGRIHRAKDVYTAIANARQVGFDNISIDLIFRLPDQSRDDFLTSLQKALALDLPHYSTYSLILERKTIFYNLMRQGKLRLPTQDVEADMYQDAIDLMEAHGRHQYEISNFAKDGYQCEHNLLYWRNDKYFGFGAGAFGYLGRDRYHNYGPIKQYLTPLHADHLPVLEHHLVPQSEQIEEEMFLGLRTMQGVSEARFYDRYHMTVDAIYGETVPELVSQGLVVRQDGYIRLTNKGKFLGNEVFQRFLIDEPLVLEHHHHHH” as the sequence, how does the protein production read?
**A.** not failed

**Q.** With “MAGCRTNAKGNAMPISIRIGNQDLTVDVSSLGAEMQALTSGDGRSWLWTGDAAFWTGRSPILFPIVGKAPDDKIAIDGTVYPMAQHGFARRSEFALAASTETMCRFELAASEATRAVYPFDFQLAVVHAVEGRALTVTAEVTNRDPKPMPFGLGFHSAFAWPLPGASGRDHIVTLDNKGEPALVRLEGGLINPAPLPSPFNAGRLVLDHSMFEQDAMIFPDGAGEGLAYGSEGGPAMRFHFKNLPNLALWTKPGAPFLCIEPWHGTAAEAGASSELSKRPSTTILAPGAVASFAFTVEIPQ” as the sequence, how does the protein production read?
**A.** failed

**Q.** With “MAGKRKSRRGFGRVRKLPSGRFQARYPGPDGVLRPADRTFATTTDADRWLMRKRIEIEEGCWLDPAEGQTTVRDWAARWLAAVSPQLKHKTQASYRSLINSLINPVLGDRELSSLRPITVTEWVGAMRTKGLSASRIRQAYRVLSQIMRSAVDNDMIPQTPCRGVRLPRMPQTEPHILTPLEASRIVKGATKPHDLLIALLAYAGLRVGEAFALRRVDVDVSGGFVLVDENLAEANGVLVFDTPKSHQKRLLRVGPSLAKRLGRHLETLPGGDDALLFTTPGGKPLRYNQWRKAYFDPAVSAAGLTDVTPHDLRASHGTWVADRYGVMTAAHRLGHSNASVTTRHYARPVAGRDDQVAEAADSWLSGSEDNDDGSAAVPA” as the sequence, how does the protein production read?
**A.** failed

**Q.** For “MAGLSTAELVDIALEMAEMRTLPADSAVYVESTDLKRVMMGIDIGPAELLLARQLGCDGVIAHHPAGGSATLNFPEVLTRHVELMVEHGVPATAARDAIQGLLTRSLLRAQSANHDHTPSVARLLEMPFLNIHLPLDEVGRRIMVKTIQEAVEPLGDEARVQDAIDALMTLPEFAGAATRIMVPVGAVDQPLGKIAVVHGAGTNGGYAVARAYFDHGVRTVLYIHIAPEEAERLRREGGGNLIVTGHIASDLVGINRYVQALEERGVEVVRMSGL”, which protein production is on record?
**A.** not failed

**Q.** For “MAGNAPLQQVQKKWAECQYSTPDGDEKEQCFHRAIAKTSIYLDREPGNPELTVWLAINKASLAGAQGGFGALSLAKEAKSLLEGVIATSPQTLDGSAYTSLGSLYYKVPGWPIGFGDDDKAEEMLKKALEINPKGIDPNYFYGDFLAEEGRDKEAKVYLTRAMQASPRPDRPLADKGRKLEIEATLGRLKLEHHHHHH”, which protein production is on record?
**A.** not failed

**Q.** For “MAGRRLIIGDVHGHYRSLYRLLELADPDTDDQVYCLGDLIDRGPDSAKVVALVRSQGYTSLMGNHEHLLSQVLAFPDLSELRLHWFQAGGQATLASFGSWEALEELRPWLQQLPLYLDLGEIWLVHAGVDPDLPLSRQDANEFCWIRDQFLARSQPFFANKTILVGHTITCTMAGIQPGYVAAGAGWLGLDTGVYHPRSGWLTALDWDNQRVFQVQAQSNETRVCDLAERLQTVLSNPAKGRRSLLRYPRDQVSPS”, which protein production is on record?
**A.** failed

**Q.** Which protein production does the source give for “MAGTTEITTKPERVVVLDTGELDSVLSLGITPVGMTTTKGANPVPSYLADKVKDVERVGTINELNIEAIAALKPDLIIGSQLRADKLYPQLSDIAPTVFSIRPGSPWKENFLLVGEALGMEKEAEEKLNEYADRVAELKNNVPQNTEVSLVRFMPNKLRLYGNKSLIGVVLADAGLARPEKQNVDDLAVEISPENIDQAAGSVIFYTSYGKPDATGETAVVEGPAWKNLEAVAAGKAHRVNDDVWFLGLGPTGAMEIVSDLHDYLLEHHHHHH” here?
**A.** not failed
